This assay has as its target T1, eukaryotic translation initiation factor 4E (eIF4E) (UniProt P06730 1-217).
T1 construct: eukaryotic translation initiation factor 4E; Expressed from a pET SUMO vector; The SUMO tag was cleaved with Ulp1 and removed on Ni-NTA; source: E. coli BL21-CodonPlus (DE3)-RIPL, purified (Ni-NTA, S75 gel filtration)
As to the kind of experiment: ITC; MicroCal ITC200; data collection as detailed in ref. 11; KD as mean and standard deviation of repeat samples (n = 3 for 5p-4E-BP2, n = 2 or 1 for the other variants). The following applies: both partners purified. On the technique in general: In ITC the heat of successive injections is recorded.

T1 sequence (P06730 whole entry): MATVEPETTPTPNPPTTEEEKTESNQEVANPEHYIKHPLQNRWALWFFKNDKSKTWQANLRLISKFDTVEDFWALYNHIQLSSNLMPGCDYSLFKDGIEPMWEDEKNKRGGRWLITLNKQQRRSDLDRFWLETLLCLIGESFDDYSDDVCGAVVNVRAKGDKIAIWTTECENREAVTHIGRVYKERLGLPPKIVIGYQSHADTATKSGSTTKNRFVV

B1: five-phospho 4E-BP2 (pT37/pT46/pS65/pT70/pS83) (natural protein, UniProt Q13542 1-120, looked up)
chain: MSSSAGSGHQPSQSRAIPTRTVAISDAAQLPHDYCTTPGGTLFSTTPGGTRIIYDRKFLLDRRNSPMAQTPPCHLPNIPGVTSPGTLIEDSKVEVNNLNNLNNHDRKHAVGDDAQFEMDI
modifications: phosphothreonine at 37, 46 and 70; phosphoserine at 65 and 83
notes: also called 5p-4E-BP2; WT 5p-4E-BP2; source: E. coli BL21-CodonPlus (DE3)-RIPL, purified (Ni-NTA, S75 gel filtration); phosphorylated with Erk2, purified again by gel filtration
In the case of B1, the Kd came out at 15 µM.

As usually defined, the Kd is the equilibrium constant for the complex coming apart. A low value points to tighter binding.

(Values after article PMC7305185, “Non-cooperative 4E-BP2 folding with exchange between eIF4E-binding and binding-incompatible states tunes cap-dependent translation inhibition” (Nature Communications, 2020).)
